Test results taken from PMC3924271.
“And” between values parts separate entries of the source, which are not always exact repeats. Equal values may be shown once.

What was measured:
[1] = molecular target: Rabbit skeletal muscle actin, monomeric (G-actin) (rabbit) (UniProt P68135); assay: SPR
[2] = molecular target: Rabbit skeletal muscle actin, filamentous (F-actin) (rabbit) (UniProt P68135)
[3] = molecular target: Rabbit skeletal muscle actin, monomeric (G-actin) (rabbit) (UniProt P68135); assay: cross-linking

Work on PfADF1.K72A (natural protein) yielded a Kd [1] of 33 µM and a kon [1] of 64.2 M⁻¹ s⁻¹.
With “Plasmodium falciparum actin depolymerizing factor 1 (PfADF1), wild type (natural protein)” the filament pitch by negative-stain TEM, similar concentration of PfADF1 [2] was 39.4 nm, the Kd [1] was 3.5 µM and the kon [1] was 95.9 M⁻¹ s⁻¹. The percent of actin and PfADF1 linked by EDC [3] was 10% and 25%.
